Experimental data published in paper PMC6131546, “Interaction of TBC1D9B with Mammalian ATG8 Homologues Regulates Autophagic Flux” (Scientific Reports, 2018).

Target: T1, FLAG-TBC1D9Bα from a stable HEK293 cell line (human, UniProt Q66K14-1 1-1250)
T1 construct: human TBC1D9B, alpha splice form, in pcDNA3.1-FLAG; also called FLAG-tagged recombinant TBC1D9B; source: purified (anti-FLAG M2 beads, eluted with glycine HCl) for the pull-down; in lysate for the co-IP
Assay: pull-down; GST fusion on glutathione-sepharose beads, incubated with recombinant FLAG-TBC1D9B or His-LC3B at 4 °C for 1 hour; 20 mM Tris pH 7.4, 0.1 mM EDTA, 100 mM NaCl; SDS-PAGE with Coomassie Brilliant Blue
Conditions: both partners purified

T1 sequence (Q66K14 whole entry, canonical isoform): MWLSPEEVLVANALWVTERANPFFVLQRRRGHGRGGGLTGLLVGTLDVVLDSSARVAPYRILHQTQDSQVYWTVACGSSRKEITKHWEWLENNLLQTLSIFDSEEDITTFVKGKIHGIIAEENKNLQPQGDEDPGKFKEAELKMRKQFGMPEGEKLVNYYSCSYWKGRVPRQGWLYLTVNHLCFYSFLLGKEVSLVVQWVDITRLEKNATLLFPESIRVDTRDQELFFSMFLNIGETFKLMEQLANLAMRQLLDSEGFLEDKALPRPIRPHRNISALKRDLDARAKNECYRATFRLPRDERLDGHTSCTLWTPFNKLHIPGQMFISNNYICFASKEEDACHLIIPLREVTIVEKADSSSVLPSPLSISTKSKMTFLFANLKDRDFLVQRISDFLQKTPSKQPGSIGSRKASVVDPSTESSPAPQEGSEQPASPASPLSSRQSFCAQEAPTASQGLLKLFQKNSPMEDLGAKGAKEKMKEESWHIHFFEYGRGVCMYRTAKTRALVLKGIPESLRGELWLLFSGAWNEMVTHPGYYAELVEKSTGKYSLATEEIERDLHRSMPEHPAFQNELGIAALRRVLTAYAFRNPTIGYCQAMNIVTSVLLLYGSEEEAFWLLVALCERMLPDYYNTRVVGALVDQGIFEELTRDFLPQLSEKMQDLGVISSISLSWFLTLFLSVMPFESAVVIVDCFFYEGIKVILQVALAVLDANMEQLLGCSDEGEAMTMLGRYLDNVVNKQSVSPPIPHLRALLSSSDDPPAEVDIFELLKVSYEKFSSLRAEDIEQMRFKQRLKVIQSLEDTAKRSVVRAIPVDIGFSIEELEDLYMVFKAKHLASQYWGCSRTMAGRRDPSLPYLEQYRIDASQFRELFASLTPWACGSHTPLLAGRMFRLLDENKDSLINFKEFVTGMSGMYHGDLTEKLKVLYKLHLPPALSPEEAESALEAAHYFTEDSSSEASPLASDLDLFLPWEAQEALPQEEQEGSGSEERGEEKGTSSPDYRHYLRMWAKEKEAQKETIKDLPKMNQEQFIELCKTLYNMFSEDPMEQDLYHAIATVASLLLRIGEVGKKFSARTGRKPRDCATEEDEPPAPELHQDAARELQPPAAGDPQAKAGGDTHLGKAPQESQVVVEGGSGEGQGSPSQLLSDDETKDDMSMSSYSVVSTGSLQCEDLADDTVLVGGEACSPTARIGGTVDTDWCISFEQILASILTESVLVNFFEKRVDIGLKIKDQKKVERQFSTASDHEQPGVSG

B1: recombinant GST-GABARAP (natural protein, human, UniProt O95166 1-117, looked up)
chain: MKFVYKEEHPFEKRRSEGEKIRKKYPDRVPVIVEKAPKARIGDLDKKKYLVPSDLTVGQFYFLIRKRIHLRAEDALFFFVNNVIPPTSATMGQLYQEHHEEDFFLYIAYSDESVYGL
notes: human GABARAP, cloned into pGEX-6p; also called GST-fused GABARAP; source: E. coli BL21, purified (glutathione-sepharose)
binding result: binds
